molecular target: Human CD28 (ELISAs of Examples 4 and 13) (human, UniProt P10747 19-152, limits assumed); assay: ELISA

| Binder | EC50 |
| --- | --- |
| TY27566 (bispecific antibody, human IgG1, kappa, N297A, also called anti-HER2xCD28 BsAb; TY27566 (WT)) light: not shown heavy: EVQLVESGGGLVQPGGSLRLSCAASGFTFTDYTMDWVRQAPGKGLEWVADVNPNSGGSIYNQRFKGRFTLSVDRSKNTLYLQMNSLRAEDTAVYYCARNLGPSFYFDYWGQGTLVTVSSASTKGPSVFPLAPSSKSTSGGTAALGCLVKDYFPEPVTVSWNSGALTSGVHTFPAVLQSSGLYSLSSVVTVPSSSLGTQTYICNVNHKPSNTKVDKKVEPKSCDKTHTCPPCPAPELLGGPSVFLFPPKPKDTLMISRTPEVTCVVVDVSHEDPEVKFNWYVDGVEVHNAKTKPREEQYASTYRVVSVLTVLHQDWLNGKEYKCKVSNKALPAPIEKTISKAKGQPREPQVYTLPPSRKKLTKNQVKLTCLVKGFYPSDIAVEWESNGQPENNYKTTPPVLDCDGSFFLYSKLTVDKSRWQQGNVFSCSVMHEALHNHYTQKSLSLSPGK DIQLTQSPSSLSASVGDRVTITCRASQSVDFHGISFLHWYQQKPGKAPKLLIYAASSLQSGVPSRFSGSGSGTDFTLTISSLQPEDFATYYCQQSYRSPRTFGQGTKVEIKGGGGSGGGGSGGGGSGGGGSEVQLVESGGGLVQPGGSLRLSCAASGFSLSTGGVGVSWIRQAPGKGLEWIGEIYHSGSTYYSPSLKSRVTISRDNSKNTLYLQLNSLRAEDTAVYYCARYEYYYYDFDYWGQGTLVTVSSEPKSSDKTHTCPPCPAPELLGGPSVFLFPPKPKDTLMISRTPEVTCVVVDVSHEDPEVKFNWYVDGVEVHNAKTKPREEQYASTYRVVSVLTVLHQDWLNGKEYKCKVSNKALPAPIEKTISKAKGQPREPQVYTDPPSRDELTKNQVSLTCLVDGFYPSDIAVEWESNGQPENCYKTTPPVLDSDGSFFLYSKLTVDKSRWQQGNVFSCSVMHEALHNHYTQDSLSLSPGK | 3.89 nM |
| TY28652 (bispecific antibody, human IgG1, kappa, N297A, anti-HER2 Fab x CD28 scFv BC8227 (VL-VH)-Fc) light: not shown heavy: EVQLVESGGGLVQPGGSLRLSCAASGFTFTDYTMDWVRQAPGKGLEWVADVNPNSGGSIYNQRFKGRFTLSVDRSKNTLYLQMNSLRAEDTAVYYCARNLGPSFYFDYWGQGTLVTVSSASTKGPSVFPLAPSSKSTSGGTAALGCLVKDYFPEPVTVSWNSGALTSGVHTFPAVLQSSGLYSLSSVVTVPSSSLGTQTYICNVNHKPSNTKVDKKVEPKSCDKTHTCPPCPAPELLGGPSVFLFPPKPKDTLMISRTPEVTCVVVDVSHEDPEVKFNWYVDGVEVHNAKTKPREEQYASTYRVVSVLTVLHQDWLNGKEYKCKVSNKALPAPIEKTISKAKGQPREPQVYTLPPSRKKLTKNQVKLTCLVKGFYPSDIAVEWESNGQPENNYKTTPPVLDCDGSFFLYSKLTVDKSRWQQGNVFSCSVMHEALHNHYTQKSLSLSPGK DIQLTQSPSSLSASVGDRVTITCRASQSVDFYGKSFLHWYQQKPGKAPKLLIYAASSLESGVPSRFSGSGSGTDFTLTISSLQPEDFATYYCQQSYRSPPTFGQGTKVEIKGGGGSGGGGSGGGGSGGGGSEVQLVESGGGLVQPGGSLRLSCAASGFSLSTGGVGVSWIRQAPGKGLEWIGSIYHSGSTYYNPSLKSRVTISRDNSKNTLYLQLNSLRAEDTAVYYCARYEYDYYAFDYWGQGTLVTVSSEPKSSDKTHTCPPCPAPELLGGPSVFLFPPKPKDTLMISRTPEVTCVVVDVSHEDPEVKFNWYVDGVEVHNAKTKPREEQYASTYRVVSVLTVLHQDWLNGKEYKCKVSNKALPAPIEKTISKAKGQPREPQVYTDPPSRDELTKNQVSLTCLVDGFYPSDIAVEWESNGQPENCYKTTPPVLDSDGSFFLYSKLTVDKSRWQQGNVFSCSVMHEALHNHYTQDSLSLSPGK | 3.68 nM |
| TY28653 (bispecific antibody, human IgG1, kappa, N297A, anti-HER2 Fab x CD28 scFv BC8228 (VL-VH)-Fc) light: not shown heavy: EVQLVESGGGLVQPGGSLRLSCAASGFTFTDYTMDWVRQAPGKGLEWVADVNPNSGGSIYNQRFKGRFTLSVDRSKNTLYLQMNSLRAEDTAVYYCARNLGPSFYFDYWGQGTLVTVSSASTKGPSVFPLAPSSKSTSGGTAALGCLVKDYFPEPVTVSWNSGALTSGVHTFPAVLQSSGLYSLSSVVTVPSSSLGTQTYICNVNHKPSNTKVDKKVEPKSCDKTHTCPPCPAPELLGGPSVFLFPPKPKDTLMISRTPEVTCVVVDVSHEDPEVKFNWYVDGVEVHNAKTKPREEQYASTYRVVSVLTVLHQDWLNGKEYKCKVSNKALPAPIEKTISKAKGQPREPQVYTLPPSRKKLTKNQVKLTCLVKGFYPSDIAVEWESNGQPENNYKTTPPVLDCDGSFFLYSKLTVDKSRWQQGNVFSCSVMHEALHNHYTQKSLSLSPGK DIQLTQSPSSLSASVGDRVTITCRASQSVDFYGISFLHWYQQKPGKAPKLLIYAASSLQSGVPSRFSGSGSGTDFTLTISSLQPEDFATYYCQQSYRTPPTFGQGTKVEIKGGGGSGGGGSGGGGSGGGGSEVQLVESGGGLVQPGGSLRLSCAASGFSLSTGGVGVSWIRQAPGKGLEWIGSIYHSGSTYYNPSLKSRVTISRDNSKNTLYLQLNSLRAEDTAVYYCARYEYGYYALDYWGQGTLVTVSSEPKSSDKTHTCPPCPAPELLGGPSVFLFPPKPKDTLMISRTPEVTCVVVDVSHEDPEVKFNWYVDGVEVHNAKTKPREEQYASTYRVVSVLTVLHQDWLNGKEYKCKVSNKALPAPIEKTISKAKGQPREPQVYTDPPSRDELTKNQVSLTCLVDGFYPSDIAVEWESNGQPENCYKTTPPVLDSDGSFFLYSKLTVDKSRWQQGNVFSCSVMHEALHNHYTQDSLSLSPGK | 7.3 nM |
| TY28654 (bispecific antibody, human IgG1, kappa, N297A, anti-HER2 Fab x CD28 scFv BC8230 (VL-VH)-Fc) light: not shown heavy: EVQLVESGGGLVQPGGSLRLSCAASGFTFTDYTMDWVRQAPGKGLEWVADVNPNSGGSIYNQRFKGRFTLSVDRSKNTLYLQMNSLRAEDTAVYYCARNLGPSFYFDYWGQGTLVTVSSASTKGPSVFPLAPSSKSTSGGTAALGCLVKDYFPEPVTVSWNSGALTSGVHTFPAVLQSSGLYSLSSVVTVPSSSLGTQTYICNVNHKPSNTKVDKKVEPKSCDKTHTCPPCPAPELLGGPSVFLFPPKPKDTLMISRTPEVTCVVVDVSHEDPEVKFNWYVDGVEVHNAKTKPREEQYASTYRVVSVLTVLHQDWLNGKEYKCKVSNKALPAPIEKTISKAKGQPREPQVYTLPPSRKKLTKNQVKLTCLVKGFYPSDIAVEWESNGQPENNYKTTPPVLDCDGSFFLYSKLTVDKSRWQQGNVFSCSVMHEALHNHYTQKSLSLSPGK DIQLTQSPSSLSASVGDRVTITCRASQSVDFYGKSFLHWYQQKPGKAPKLLIYAASSLQSGVPSRFSGSGSGTDFTLTISSLQPEDFATYYCQQSYRTPLTFGQGTKVEIKGGGGSGGGGSGGGGSGGGGSEVQLVESGGGLVQPGGSLRLSCAASGFSLSTSGVGVSWIRQAPGKGLEWIGSIYHSGSTYYNPSLKSRVTISRDNSKNTLYLQLNSLRAEDTAVYYCARYEYGYYAFDYWGQGTLVTVSSEPKSSDKTHTCPPCPAPELLGGPSVFLFPPKPKDTLMISRTPEVTCVVVDVSHEDPEVKFNWYVDGVEVHNAKTKPREEQYASTYRVVSVLTVLHQDWLNGKEYKCKVSNKALPAPIEKTISKAKGQPREPQVYTDPPSRDELTKNQVSLTCLVDGFYPSDIAVEWESNGQPENCYKTTPPVLDSDGSFFLYSKLTVDKSRWQQGNVFSCSVMHEALHNHYTQDSLSLSPGK | 68.4 nM |

— patent publication US20250257133A1 (ADAGENE PTE, published 2025)
